Our source for the Kd values is patent US20220056091A1.

Broadly, the Kd is the concentration at which binding is half-saturated. The low end stands for tighter binding, the high end for weaker binding.

This test has as its target His-tagged human IL-18BP (human) (UniProt O95998). Nature of the test: alphaLISA of free IL-18BP. On the technique in general: Bead proximity is the source of the signal in Alpha formats.

His-tagged human IL-18BP (human), sequence (O95998 31-194): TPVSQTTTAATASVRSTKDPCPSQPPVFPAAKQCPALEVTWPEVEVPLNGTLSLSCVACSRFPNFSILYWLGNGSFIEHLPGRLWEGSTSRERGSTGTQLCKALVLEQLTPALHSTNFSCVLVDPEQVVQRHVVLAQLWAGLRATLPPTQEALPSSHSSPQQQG
IL-18 polypeptide of SEQ ID NO: 1 (native sequence, human IL-18 37-193), sequence (Q14116 37-193): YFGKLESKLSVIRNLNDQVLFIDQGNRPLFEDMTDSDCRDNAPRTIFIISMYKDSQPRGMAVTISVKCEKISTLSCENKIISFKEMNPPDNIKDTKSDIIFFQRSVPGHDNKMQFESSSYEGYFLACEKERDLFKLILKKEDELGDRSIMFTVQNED

As to “IL-18 polypeptide of SEQ ID NO: 1 (native sequence, human IL-18 37-193) (from UniProt Q14116 37-193) (ligand)”, the Kd was found to be 0.67 nM.

In turn, “Modified IL-18 polypeptide of SEQ ID NO: 3 (Y01G, F02A, E06K, M51G, K53A, D54A, S55A, T63A) (from UniProt Q14116 37-193) (ligand)” came in with a Kd of 969 nM.

With “Modified IL-18 polypeptide of SEQ ID NO: 4 (K53A) (from UniProt Q14116 37-193) (ligand)”, the Kd stood at 514 nM.

Regarding “Modified IL-18 polypeptide of SEQ ID NO: 5 (S55A) (from UniProt Q14116 37-193) (ligand)”, the Kd was 10.7 nM. Against the preceding substance, the Kd is about 48-fold lower.

Substance “Modified IL-18 polypeptide of SEQ ID NO: 6 (E06K) (from UniProt Q14116 37-193) (ligand)” returned a Kd of 0.13 nM.

As for “Modified IL-18 polypeptide of SEQ ID NO: 7 (E06K, K53A) (from UniProt Q14116 37-193) (ligand)”, the Kd was 130 nM.

Substance “Modified IL-18 polypeptide of SEQ ID NO: 8 (E06K, S55A) (from UniProt Q14116 37-193) (ligand)” came in with a Kd of 12.3 nM.

“Modified IL-18 polypeptide of SEQ ID NO: 9 (K53A, S55A) (from UniProt Q14116 37-193) (ligand)” displayed a Kd of 500 nM.

“Modified IL-18 polypeptide of SEQ ID NO: 10 (E06K, K53A, S55A, T63A) (from UniProt Q14116 37-193) (ligand)” displayed a Kd of 822 nM.

With “Modified IL-18 polypeptide of SEQ ID NO: 15 (C38S, C68S, C76S, C127S) (from UniProt Q14116 37-193) (ligand)”, the Kd amounted to 0.03 nM. This Kd is about 27000-fold lower than that of the substance before.

In the case of “Modified IL-18 polypeptide of SEQ ID NO: 16 (C38S, C68S, C76S, C127S, K70C) (from UniProt Q14116 37-193) (ligand)”, the Kd was 0.21 nM.

Consider “Modified IL-18 polypeptide of SEQ ID NO: 18 (E06K, K53A, T63A) (from UniProt Q14116 37-193) (ligand)”, for which the Kd amounted to 340 nM.

For “Modified IL-18 polypeptide of SEQ ID NO: 19 (T63A) (from UniProt Q14116 37-193) (ligand)”, the Kd turned out to be 2.59 nM. Against the preceding substance, the Kd is about 130-fold lower.

The substance “Modified IL-18 polypeptide of SEQ ID NO: 20 (E06K, T63A) (from UniProt Q14116 37-193) (ligand)” had a Kd of 0.83 nM.

Take “Modified IL-18 polypeptide of SEQ ID NO: 21 (K53A, T63A) (from UniProt Q14116 37-193) (ligand)”: the Kd came to 198 nM.

Substance “Modified IL-18 polypeptide of SEQ ID NO: 22 (E06K, K53A, C38S, C68S, C76S, C127S, K70C) (from UniProt Q14116 37-193) (ligand)” gave a Kd of 446 nM.

On to “Modified IL-18 polypeptide of SEQ ID NO: 23 (K53A, T63A, C38S, C68S, C76S, C127S, K70C) (from UniProt Q14116 37-193) (ligand)”, for which the Kd was 913 nM.

“Modified IL-18 polypeptide of SEQ ID NO: 70 (E6K, K53A, C38S, C76S, C127S) (from UniProt Q14116 37-193) (ligand)” displayed a Kd of 436 nM.

“Modified IL-18 polypeptide of SEQ ID NO: 71 (E6K, C38S, K53A) (from UniProt Q14116 37-193) (ligand)”: the Kd worked out at 50.2 nM. Compared with the last substance, the Kd is about 8.7-fold lower.

Take “Modified IL-18 polypeptide of SEQ ID NO: 71 with a 30 kDa PEG attached at residue C68 (E6K, C38S, K53A, C68-30kDPEG) (from UniProt Q14116 37-193) (ligand)”: the Kd came to 59.1 nM.
